# Results reported in article PMC10998826 (EJNMMI Research, 2024).
# Where two headings read alike, the source gives them in different places.
# Legend:
# [1] = SPECT/CT based dosimetry of tumors; assay type: in vivo, humans; conditions: human, iv, total radioactivity
# Protocol: (§1) Patients were allowed a light breakfast at the day of each infusion. […] Entresto® was given at an oral dose of 100 mg, containing 48.6 mg sacubitril and 51.4 mg valsartan 2 h before the start of one of the two infusions. Vital signs were recorded, and a 12-lead electrocardiogram was obtained before and after each injection. Adverse events were recorded and graded according to Common Terminology Criteria for Adverse Events (CTCAE) version 4.03.
# (§2) Planar whole-body scintigraphy and quantitative SPECT/CT acquisitions of neck/thorax/abdomen/pelvis were acquired with a hybrid SPECT/CT system (Siemens Intevo, Siemens Erlangen, Germany) at 1, 4, 24 and 72 h post injection (p.i.).
# (§3) Calibration of the SPECT/CT camera was performed with a National Institute of Standards and Technology traceable selenium-75 point source (uncertainty in activity 3%) every four weeks. Acquisitions (medium-energy low-penetration collimator) were performed in step and shoot mode using 20 s/view, 64 views/head using a non-circular orbit with a 180° detector configuration in a 128 × 128 matrix. The photo-peak window was set to 208 keV ± 10% (187.2–228.8 keV). Except for the first patient, the quantitative tomographic images (isotropic voxel size 5.08 mm^3) were reconstructed with xSPECT Quant™ (Siemens Healthcare, Siemens Erlangen, Germany) which uses the ordered subset conjugate gradient method (OSCGM) to calculate the quantitative activity distribution. The number of iterations (12, 24 or 60) with one subset and 3D-Gaussian post-filter with full width at half maximum (FWHM) of 16.0 mm and 20.8 mm were selected automatically by the reconstruction algorithm, based on the count statistic. Triple energy window scatter correction, CT-based attenuation correction, and resolution recovery were enabled for all image reconstructions. As the xSPECT Quant™ algorithm was not available at the site initially, images of the first patient were quantitatively reconstructed (isotropic voxel size of 3.9 mm^3) using the OSCGM algorithm with 24 iterations, one subset and a 3D-Gaussian post filter of 10.0 mm FWHM. For these reconstructions, both photo-peak energy windows at 113 keV ± 10% and 208 keV ± 10% were used. All other settings remained as stated above.
# (§4) At first a VOI with volume V0 and activity A0 enclosing the tumor and its surrounding background was drawn. Subsequently, the threshold was increased until a new VOI with volume Vspect and activity Aspect separating the tumor activity from background was found. The activity in the tumor at the fourth time point can then be estimated by A4=Aspect-A0-Aspect/V0-VspectVspect-VCT, where the second term is the background correction, with the tumor volume VCT determined in the contrast enhanced CT. Spill in and out of activity from the tumor volume into the background was not considered.
# (§5) Time activity curves (TAC) of the tumors were determined using the mean activity of 3 ml threshold VOIs, drawn in the 1, 4, 24 and 72 h p.i. images. A linear model yt=α+λe·t was fitted to the log-transformed data points to estimate the effective half-life Te=ln2/λe . The activity at the first acquisition is then given by A1=A4·e^λe·Δt where Δt is the time difference between the first and fourth acquisition. The total number of disintegrations can then be estimated by N=A1t1/2+∫t1e^-λet^′dt^′ where t1 is the time of the first acquisition.
# (§6) The average energy deposition E per disintegration in soft tissue voxels of 3.9 mm^3 and 5.08^3 mm^3 with density ρ=1g/cm^3 was calculated with FLUKA, resulting in the mean tumor dose given by D=N·E/ρ·VCT .
# (§7) In case the data was not suitable for single exponential fit, N was calculated numerically using trapezoidal integration until the fourth time point and after with analytical integration of the exponential decay using the half-live of Lutetium-177.
# (§8) The energy distribution in ICRP soft tissue of a Lu-177 point source was calculated with the MC-Simulation toolkit FLUKA version 4.1.0.
# [2] = tested on: medullary thyroid carcinoma tumors; assay: SPECT/CT based dosimetry of tumors; assay type: in vivo, humans; conditions: for Mean tumor dose: SPECT/CT dosimetry
# Protocol: as §1, §2, §3, §4, §5, §6, §7, §8
# Dosimetry of kidneys = assay type: in vivo, humans; conditions: for Kidney dose: median
# Protocol: as §2
# Kidney dosimetry was performed using the dosimetry workflow in the DRT, which includes automatic organ segmentation, time activity curve modelling, and absorbed dose calculation using the medical internal radiation dosimetry (MIRD) method and voxel dosimetry.
# After automatic organ segmentation in the 24 h SPECT images, the kidney VOIs were manually corrected to ensure accurate segmentation. Then, the SPECT images at 1, 4 and 72 h where manually co-registered to the 24 h images. Time activity curves were fitted to the measured kidney activity at the four time points using a single exponential function. The calculated and measured data were then used to estimate the absorbed dose in the kidneys using the MIRD method.
# Bone marrow and kidney dosimetry was performed as described before.
# Dosimetry of stomach = assay type: in vivo, humans; conditions: for Stomach dose: gastric wall
# Protocol: as §2
# A conservative segmentation approach was adopted for gastric dosimetry to ensure that the VOI included all activity distributed in the gastric wall. TACs were analyzed in the same way as for the tumor dosimetry with a mono-exponential model. The average absorbed dose D in the gastric wall was then calculated by using D=N·E/m , where N is the total number of disintegrations, E the average energy deposited in tissue and m = 0.15 kg is the mass of the stomach wall.
# [3] = Acute toxicity, adverse events graded by CTCAE version 4.03; assay type: in vivo, humans; conditions: all patients, with and without Entresto premedication
# Protocol: as §1
# CCK2R positive tumors = conditions: athymic mouse model; cited from earlier work
# Source text: About 90% of medullary thyroid carcinomas (MTCs) express the transmembrane G protein–coupled cholecystokinin 2 receptor (CCK2R) at a high density, making CCK2R an interesting target for peptide receptor radionuclide therapy (PRRT). Recently, a new generation of radiolabeled minigastrin derivatives, targeting CCK2R, with improved and promising properties was introduced. First clinical trials explore the potential of such compounds for imaging and PRRT of CCK2R expressing tumors, in particular for MTC [3–5]. However, the reported tumor radiation doses were lower than those usuall ...
# [4] = Entresto premedication, eight patients
smiles,measurement,setting,value
"CSCC[C@H](NC(=O)[C@H](Cc1c[nH]c2ccccc12)NC(=O)CNC(=O)[C@H](Cc1ccc(O)cc1)NC(=O)[C@H](C)NC(=O)[C@@H](CCC(=O)O)NC(=O)[C@@H](CCC(=O)O)NC(=O)[C@@H](CCC(=O)O)NC(=O)[C@@H](CCC(=O)O)NC(=O)[C@@H](CCC(=O)O)NC(=O)[C@@H](CCC(=O)O)NC(=O)CN1CCN(CC(=O)O)CCN(CC(=O)O)CCN(CC(=O)O)CC1)C(=O)N[C@@H](CC(=O)O)C(=O)N[C@@H](Cc1ccccc1)C(N)=O [[^177Lu]Lu-PP-F11N, [^177Lu]Lu-DOTA-(DGlu)6-Ala-Tyr-Gly-Trp-Met-Asp-Phe-NH2, metal not drawn]",tissue to tissue ratio,"[1]; tumor / bone marrow, 1.08 GBq, without Entresto premedication, patient 4, 2nd tumor, read-out: Tumor-to-bone marrow dose ratio",1.8
same,tissue to tissue ratio,"[1]; tumor / bone marrow, with Entresto premedication, patient 4, 2nd tumor, read-out: Tumor-to-bone marrow dose ratio",1.4
same,tissue to tissue ratio,"[1]; tumor / kidney, 1.08 GBq, without Entresto premedication, patient 4, 2nd tumor, read-out: Tumor-to-kidney dose ratio",1
same,tissue to tissue ratio,"[1]; tumor / kidney, with Entresto premedication, patient 4, 2nd tumor, read-out: Tumor-to-kidney dose ratio",0.6
same,tissue to tissue ratio,"[1]; tumor / stomach, 1.08 GBq, without Entresto premedication, patient 4, 2nd tumor, read-out: Tumor-to-stomach dose ratio",0.2
same,tissue to tissue ratio,"[1]; tumor / stomach, with Entresto premedication, patient 4, 2nd tumor, read-out: Tumor-to-stomach dose ratio",0.1
same,tissue to tissue ratio,"[1]; tumor and bone marrow, 1.08 GBq, without Entresto premedication, patient 7, 2nd tumor, read-out: Tumor-to-bone marrow dose ratio",15.7
same,tissue to tissue ratio,"[1]; tumor and bone marrow, with Entresto premedication, patient 7, 2nd tumor, read-out: Tumor-to-bone marrow dose ratio",30.3
same,tissue to tissue ratio,"[1]; tumor and kidney, 1.08 GBq, without Entresto premedication, median, read-out: Tumor-to-kidney dose ratio",8.3
same,tissue to tissue ratio,"[1]; tumor and kidney, with Entresto premedication, median, read-out: Tumor-to-kidney dose ratio",7.8
same,tissue to tissue ratio,"[1]; tumor and kidney, with Entresto premedication, patient 7, 2nd tumor, read-out: Tumor-to-kidney dose ratio",11.2
same,tissue to tissue ratio,"[1]; tumor and stomach, 1.08 GBq, without Entresto premedication, median, read-out: Tumor-to-stomach dose ratio",1.5
same,tissue to tissue ratio,"[1]; tumor and stomach, with Entresto premedication, median, read-out: Tumor-to-stomach dose ratio",1.1
same,tissue to tissue ratio,"[1]; tumor and stomach, with Entresto premedication, patient 7, 2nd tumor, read-out: Tumor-to-stomach dose ratio",1.3
same,Mean tumor dose,"[2]; with Entresto premedication, median of n = 6 tumor lesions",0.74 Gy/GBq
same,Mean tumor dose,"[2]; with Entresto premedication, patient 4, 2nd tumor",0.07 Gy/GBq
same,Mean tumor dose,"[2]; without Entresto premedication, median of n = 6 tumor lesions",0.28 Gy/GBq
same,Mean tumor dose,"[2]; without Entresto premedication, patient 4, 2nd tumor",0.05 Gy/GBq
same,tissue to tissue ratio,"[2]; human, tumor and bone marrow, iv, total radioactivity, without Entresto premedication, median, read-out: Tumor-to-bone marrow dose ratio",9.2
same,Median absorbed dose of kidneys after premedication compared to without,Dosimetry of kidneys; [4],2.4 fold
same,Kidney dose,Dosimetry of kidneys; with Entresto premedication,0.11 Gy/GBq
same,Kidney dose,Dosimetry of kidneys; without Entresto premedication,0.05 Gy/GBq
same,Median absorbed dose of stomach after premedication compared to without,Dosimetry of stomach; [4],2.1 fold
same,Stomach dose,"Dosimetry of stomach; with Entresto premedication, median",0.5 Gy/GBq
same,Stomach dose,"Dosimetry of stomach; without Entresto premedication, median",0.2 Gy/GBq
same,Stomach dose,"Dosimetry of stomach; without Entresto premedication, patient 4",0.23 Gy/GBq
same,Stomach dose,"Dosimetry of stomach; without Entresto premedication, patient 7",0.17 Gy/GBq
same,Serious adverse events,[3],No serious adverse event
same,Increase in tumor uptake on co-injection of phosphoramidon,CCK2R positive tumors,not significant
same,Increase in tumor uptake on co-injection of thiorphan,CCK2R positive tumors,only to a minor extent
